Data: patent US20170362317A1

Molecular target: IL6 receptor on human multiple myeloma U266 cells (human) (UniProt P08887)
Experiment: cell-based or functional assay

IL6 receptor on human multiple myeloma U266 cells (human), sequence (P08887 20-468): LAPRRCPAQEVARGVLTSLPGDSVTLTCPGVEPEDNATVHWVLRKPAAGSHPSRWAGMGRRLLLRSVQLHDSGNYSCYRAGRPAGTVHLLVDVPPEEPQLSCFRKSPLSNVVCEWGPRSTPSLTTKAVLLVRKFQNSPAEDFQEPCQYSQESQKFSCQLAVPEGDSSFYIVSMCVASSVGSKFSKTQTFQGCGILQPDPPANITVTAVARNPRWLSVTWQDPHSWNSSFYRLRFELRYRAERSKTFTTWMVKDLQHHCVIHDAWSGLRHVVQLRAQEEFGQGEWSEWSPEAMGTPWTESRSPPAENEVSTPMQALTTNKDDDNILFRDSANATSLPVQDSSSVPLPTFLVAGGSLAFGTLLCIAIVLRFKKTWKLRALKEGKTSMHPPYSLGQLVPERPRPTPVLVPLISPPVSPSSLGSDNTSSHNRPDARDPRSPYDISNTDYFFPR

Substance: Actemra, an anti-IL6 receptor humanized antibody
- inhibition percentage of control of STAT3 phosphorylation in U266 cells, antibody at 0.05 µg/ml: 0%
- inhibition percentage of control of STAT3 phosphorylation in U266 cells, antibody at 0.5 µg/ml: 17%
